Assay [1] addresses HIV-1 reverse transcriptase p51 (HIV-1) (UniProt P03366). Description: NMR (1H-13C HMQC of Ile delta-methyl-labelled protein); 150 µM [^13CH3-Ile]p51 in 25 mM Tris-HCl-d11 in D2O (pD 7.5), 800 mM KCl, 20 mM MgCl2, 0.02% NaN3 (high salt to stabilise the homodimer); monomer to dimer.
Assay [2] has as its target HIV-1 reverse transcriptase p66 (HIV-1). Put plainly: SEC; HiLoad 26/60 superdex 200 column, p66 and p66∆PL run separately; 50 mM Tris–HCl, pH 8.0, 200 mM NaCl, 1 mM EDTA; 0.5 ml/min; 4 °C; absorbance at 280 nm; monomer to dimer. A general note: SEC sorts molecules by how far they enter the pores of the column.
Assay [3] shares this target. Description: NMR (1H-13C HMQC of Ile delta-methyl-labelled protein, time-dependent); [^13CH3-Ile]p66 homodimerization; successive 5.5-hr spectra after dimerization conditions were introduced; 25 mM Tris-HCl-d11 in D2O, pD 7.51, 100 mM KCl, 0.02% NaN3; 35 °C; apparent time constants; monomer to dimer.
Assay [4] shares this target. Put plainly: NMR (1H-13C HMQC of Ile delta-methyl-labelled protein, time-dependent); 45 µM [^13CH3-Ile]p66∆PL with 90 µM unlabeled p66 (twofold excess); 25 mM Tris-HCl-d11, pD 7.5, 100 mM KCl, 0.02% NaN3; successive 5.5-hr spectra; 35 °C; apparent time constants.

As a reminder, the stoichiometry N is the number of molecules, sites or subunits per partner or assembly.

Take “HIV-1 reverse transcriptase p51 (from UniProt P03366 600-1039) (natural protein)”: the percent dimer in assay [1] is 90%.
As for “HIV-1 reverse transcriptase p66 (enzyme)”, in assay [2], the dimer/monomer ratio (percent dimer) came out at 75 % dimer and the stoichiometry N was 2. Moreover, the apparent time constant of dimer formation (Ile382E resonance) in assay [3] is 2.4 h.
In the case of “p66∆PL, p66 deletion mutant lacking palm loop residues 219–230 (enzyme)”, in assay [4], the apparent time constant of growth of the dimer resonance (Ile47C) was 8.8 h, the apparent time constant of monomer decay (Ile47M resonance) worked out at 9.1 h, the apparent time constant of monomer decay (Ile393M resonance) turned out to be 9.3 h and the mean monomer decay time constant was 9 h. In addition, in assay [4], the percent dimerized (limit reached) was 80 to 90%; the percent of the Ile47' intensity in the dimer species, initial spectra fell in the range of 30 to 40%; the percent of the Ile47' intensity in the dimer species, limiting value came out at 80%.
